Laboratory results as given in patent US6361968 (US Dept. of Health and Human Services, dated 1997).
Where two headings read alike, the source gives them in different places.

B3: GBF-C/EBP chimeric protein (other)
chain: PVKDERELKRQKRKQSNRESARRSRLRNEAECEQTQQKVLELTSDNDRLRKRVEQLSRELDTLRGIFRQLPESSLVKAMGNCA
B4: C/EBP bZIP domain (GCN4-C/EBP chimeric protein) (other)
chain: SEYQPSLFALNPMGFSPLDGSKSTNENVSASTSTAKPMVGQLIFDKFIKTEEDPGKAKKSVDKNSNEYRVRRERNNIAVRKSRDKAKQRNVETQQKVLELTSDNDRLRKRVEQLSRELDTLRGIFRQLPESSLVKAMGNCA
notes: Made in E. coli; forms a homodimer; also called C/EBP-C/EBP; wild type C/EBP
B13: c-Jun (unmodified) (other, UniProt P05412 241-331, looked up)
chain: PLSPIDMESQERIKAERKRMRNRIAASKCRKRKLERIARLEEKVKTLKAQNSELASTANMLREQVAQLKQKVMNHVNSGCQLMLTQQLQTF
B14: VBP-C/EBP chimeric protein (other)
chain: ASMTGGQQMGRDPLEEKVFVPDEQKDEKYWTRRKKNNVAAKRSRDARRLKENQTQQKVLELTSDNDRLRKRVEQLSRELDTLRGIFRQLPESSLVKAMGNCA

Experiments:
[1] = biological target: the molecule itself; assay: homodimer, dimerization study of FIG. 9
[2] = biological target: T1, CREB (unmodified) (UniProt P16220 254-327); assay: thermal melt, CREB with 4heptadCREB (FIG. 3)
T1 construct: also called CREB protein
T1 sequence (looked up): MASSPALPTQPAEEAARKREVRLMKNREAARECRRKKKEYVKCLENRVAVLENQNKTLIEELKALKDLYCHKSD

[3] = biological target: the molecule itself; assay: CD thermal melt, homodimer, 150 mM KCl
Protocol: (§1) CD analyses were performed as described in Materials and Methods of D. Krylov et al., 1994, *EMBO J.,* 13:2849–2861. T_m values were calculated as described in D, Krylov et al., 1994, Ibid, converted to K_{d(25)} and $\Delta G(25)$ using a $\Delta C_p$ of –0.96 kcal/mol° C.^-1 calculated from a T_m versus $\Delta H$ plot for all of the proteins as described herein. All thermal melts were reversible.
(§2) Table 1 presents the melting temperature (T_m,° C.), $\Delta G$ and k_d at 25° C. for CD thermal melts of a variety of proteins either as homodimers or an equimolar mixture of two proteins. […] The (L) denotes 'low' salt conditions (50 mM KCl, 25 mM Tris pH 8.0, 0.5 mM EDTA, 1 mM DTT) and the (H) denotes regular salt conditions (12.5 mM potassium phosphate, pH 7.4, 150 mM KCl, 0.25 mM EDTA, and 0.5 mM DTT). The latter conditions were used in Table 2. "0heptad-F" represents the F zipper with the basic region deleted. The RMS error in $\Delta G$ is 0.2 kcal/mol and 0.5 kcal/mol for homo- and heterodimers respectively.

[4] = biological target: the molecule itself; assay: CD thermal melt, homodimer, 150 mM KCl, Kd at 25 C
Protocol: as §1, §2

[5] = biological target: the molecule itself; assay: CD thermal melt, homodimer, low salt (50 mM KCl), Kd at 25 C
Protocol: as §1, §2

[6] = biological target: the molecule itself; assay: CD thermal melt, homodimer, 150 mM KCl, Kd at 25 C; remark: listed apart in the source
Protocol: as §1, §2

[7] = biological target: B3; assay: thermal melt of the mixture (FIG. 1)
[8] = biological target: B14; assay: thermal melt of the mixture (FIG. 1)
[9] = biological target: B4; assay: thermal melt of the mixture (FIG. 1)
[10] = biological target: B3; assay: CD thermal melt, equimolar mixture, 150 mM KCl, Kd at 25 C
Protocol: as §2
(§3) The two chimeras were mixed with the four different length acidic extensions appended to the F zipper and their stability was determined from CD thermal melts.

[11] = biological target: B14; assay: as above
Protocol: as §2, §3

[12] = biological target: B4; assay: as above
Protocol: as §2, §3

[13] = biological target: B3; assay: CD thermal melt, equimolar mixture, 150 mM KCl
Protocol: as §2, §3

[14] = biological target: B14; assay: CD thermal melt, equimolar mixture, 150 mM KCl
Protocol: as §2, §3

[15] = biological target: B4; assay: CD thermal melt, equimolar mixture, 150 mM KCl
Protocol: as §2, §3

[16] = biological target: c-Myc bHLH protein (murine, UniProt P01108 368-454); assay: heterodimer with c-Myc, dimerization study of FIG. 9
Sequence of c-Myc bHLH protein (P01108 368-454 limits assumed, form in doubt): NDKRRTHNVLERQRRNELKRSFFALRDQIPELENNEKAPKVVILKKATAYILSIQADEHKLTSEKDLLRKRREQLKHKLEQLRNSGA

[17] = biological target: B4; assay: thermal stability as heterodimers with C/EBP
[18] = biological target: B4; assay: CD thermal melt, equimolar mixture, 150 mM KCl, Kd at 25 C
Protocol: as §1, §2

[19] = biological target: B4; assay: CD thermal melt, equimolar mixture, 150 mM KCl
Protocol: as §1, §2

[20] = biological target: T1, CREB (unmodified); assay: thermal melt of the mixture (FIG. 3)
[21] = biological target: the molecule itself; assay: from thermal melts of FIG. 4, Kd at 37 C
[22] = biological target: B3; assay: CD thermal melts
[23] = biological target: B14; assay: CD thermal melts
[24] = biological target: B4; assay: CD thermal melts
[25] = biological target: B13; assay: from thermal melts of FIG. 4, Kd at 37 C
[26] = biological target: B13; assay: thermal melt of the mixture (FIG. 4)

B1: 0heptadMax (dimerization domain of Max without an acidic extension) (designed binder)
chain: ASMTGGQQMGRDPDLEELEDSFHSLRDSVPSLQGEKASRAQILDKATEYIQYMRRKNHTHQQDIDDLKRQNALLEQQVRALEKARSSAQLQT
notes: domain: dimerization domain; also called OheptadMax
[1]
  Kd: 100 nM

B2: 4heptadCREB (CREB with the 4heptad acidic extension appended at the amino terminus) (designed binder)
chain: ASMTGGQQMGRDPDLEQRAEELARENEELEKEAEELEQENAELENRVAVLENQNKTLIEELKALKDLYCHKSD
notes: also called 4hep-CREB
[2]
  Tm: 53 °C

## B3
[3]
  deltaG at 25 C: -10.6 kcal/mol
[4]
  Kd: 20 nM

## B4
[3]
  deltaG at 25 C: -10.9 kcal/mol
[4]
  Kd: 10 nM
[5]
  Kd: 30 nM
[6]
  Kd: 10 nM

B5: 4heptad-F (designed binder)
chain: ASMTGGQQMGRDPGGGLEQRAEELARENEELEKEAEELEQENAELEQEVLELESRNDRLRKEVEQLERELDTLRGIFRQLPESSLVKAMGNCA
notes: also called 4heptad-F zipper protein
[7]
  melting temperature (given as ellipticity): 65 °C
[8]
  melting temperature (given as ellipticity): 65 °C
[9]
  melting temperature (given as ellipticity): 65 °C
[3]
  deltaG at 25 C: -6.3 kcal/mol
[4]
  Kd: 20000 nM
[10]
  Kd: 0.03 nM
[11]
  Kd: 0.01 nM
[12]
  Kd: 0.04 nM
[13]
  Tm: 65 °C
  deltaG at 25 C: -14.5 kcal/mol
[14]
  Tm: 65.2 °C
  deltaG at 25 C: -14.8 kcal/mol
[15]
  Tm: 64.8 °C
  deltaG at 25 C: -14.2 kcal/mol

B6: 2heptad-F (designed binder)
chain: ASMTGGQQMGRDPGGGLEKEAEELEQENAELEQEVLELESRNDRLRKEVEQLERELDTLRGIFRQLPESSLVKAMGNCA
[3]
  deltaG at 25 C: -7.4 kcal/mol
[4]
  Kd: 4000 nM
[10]
  Kd: 0.1 nM
[11]
  Kd: 0.09 nM
[12]
  Kd: 0.07 nM
[13]
  Tm: 63.1 °C
  deltaG at 25 C: -13.6 kcal/mol
[14]
  Tm: 62.8 °C
  deltaG at 25 C: -13.8 kcal/mol
[15]
  Tm: 63.6 °C
  deltaG at 25 C: -13.9 kcal/mol

B7: AcidMax (Max with a polyglutamic acid extension) (designed binder)
chain: MASMTGGQQMGRDPDEEEDDEEELEELEDSFHSLRDSVPSLQGEKASRAQILDKATEYIQYMRRKNHTHQQDIDDLKRQNALLEQQVRALEKARSSAQLQT
[1]
  Kd: 30 nM
[16]
  Kd: 0.002 nM

B8: 3heptad-F with the DP- N-terminal cap (designed binder)
chain: ASMTGGQQMGRDPLARENEELEKEAEELEQENAELEQEVLELESRNDRLRKEVEQLERELDTLRGIFRQLPESSLVKAMGNCA
notes: Built from the statement that DP- replaces DP-GGG; also called DP- cap
[17]
  fold stability against the DP-GGG cap: 3 fold

B9: 3heptad-F with the DP-D N-terminal cap (designed binder)
chain: ASMTGGQQMGRDPDLARENEELEKEAEELEQENAELEQEVLELESRNDRLRKEVEQLERELDTLRGIFRQLPESSLVKAMGNCA
notes: Built from the statement that DP-D replaces DP-GGG; also called DP-D cap; DPD cap
[17]
  fold stability against the DP-GGG cap: 3 fold

B10: 0heptad-F (F zipper with the basic region deleted) (designed binder)
chain: ASMTGGQQMGRDPGGGTQQEVLELESRNDRLRKEVEQLERELDTLRGIFRQLPESSLVKAMGNCA
notes: Made in E. coli; the initiator methionine is processed off; also called heterodimerizing zipper; 0heptad-F (H)
[3]
  deltaG at 25 C: -8 kcal/mol
[4]
  Kd: 1000 nM
[10]
  Kd: 2 nM
[11]
  Kd: 1 nM
[12]
  Kd: 3 nM
[18]
  Kd: 3 nM
[13]
  Tm: 55.7 °C
  deltaG at 25 C: -11.9 kcal/mol
[14]
  Tm: 55.1 °C
  deltaG at 25 C: -12.2 kcal/mol
[15]
  Tm: 55.4 °C
  deltaG at 25 C: -11.8 kcal/mol
[19]
  Tm: 55.4 °C
[6]
  Kd: 2000 nM

B11: 3heptad-C/EBP (three heptad acidic extension appended onto the C/EBP leucine zipper) (designed binder)
chain: ASMTGGQQMGRDPGGGLARENEELEKEAEELEQENAELEQKVLELTSDNDRLRKRVEQLSRELDTLRGIFRQLPESSLVKAMGNCA
[12]
  Kd: 0.6 nM
[15]
  Tm: 61 °C
  deltaG at 25 C: -12.6 kcal/mol

B12: New4hepCREB (CREB with the new 4heptad extension, asparagine changed to leucine) (designed binder)
chain: MDYKDDDDKHMASMTGGQQMGRDPDLEQRAEELARENEELEKEAEELEQELAELENRVAVLENQNKTLIEELKALKDLYCHKSD
notes: also called New4heptadCREB; CMV500-4heptadCREB
[20]
  Tm: 69.5 °C

## B13
[21]
  Kd: 20000 nM

## B14
[3]
  deltaG at 25 C: -11.1 kcal/mol
[4]
  Kd: 8 nM

B15: 1heptad-F (designed binder)
chain: ASMTGGQQMGRDPGGGLEQENAELEQEVLELESRNDRLRKEVEQLERELDTLRGIFRQLPESSLVKAMGNCA
[3]
  deltaG at 25 C: -8 kcal/mol
[4]
  Kd: 1000 nM
[10]
  Kd: 0.2 nM
[11]
  Kd: 0.3 nM
[12]
  Kd: 0.1 nM
[13]
  Tm: 62 °C
  deltaG at 25 C: -13.2 kcal/mol
[14]
  Tm: 60.5 °C
  deltaG at 25 C: -13.1 kcal/mol
[15]
  Tm: 60.8 °C
  deltaG at 25 C: -13.5 kcal/mol
[22]
  stabilization against 0heptad-F: 1.3 kcal/mol
[23]
  stabilization against 0heptad-F: 0.9 kcal/mol
[24]
  stabilization against 0heptad-F: 1.7 kcal/mol

B16: c-Fos (unmodified) (other)
chain: PDKVEQLSPEEEEKRRIRRERNKMAAAKCRNRRRELTDTLQAETDQLEDEKSALQTEIANLLKEKEKLEFILAAHRPACKIP
notes: also called human c-Fos protein
[25]
  Kd: 200 nM
[26]
  Tm: 50 °C

B17: new4heptadFos (4heptadFos with one asparagine of the acidic region changed to leucine) (designed binder)
chain: ASMTGGQQMGRDPDLEQRAEELARENEELEKEAEELEQELAELEAETDQLEDEKSALQTEIANLLKEKEKLEFILAAHRPACKIP
notes: also called N4heptad-Fos
[26]
  Tm: 72 °C
